This series concerns the target T1, HK2 Δ16 (UniProt P52789 17-917, del1-16).
T1 sequence: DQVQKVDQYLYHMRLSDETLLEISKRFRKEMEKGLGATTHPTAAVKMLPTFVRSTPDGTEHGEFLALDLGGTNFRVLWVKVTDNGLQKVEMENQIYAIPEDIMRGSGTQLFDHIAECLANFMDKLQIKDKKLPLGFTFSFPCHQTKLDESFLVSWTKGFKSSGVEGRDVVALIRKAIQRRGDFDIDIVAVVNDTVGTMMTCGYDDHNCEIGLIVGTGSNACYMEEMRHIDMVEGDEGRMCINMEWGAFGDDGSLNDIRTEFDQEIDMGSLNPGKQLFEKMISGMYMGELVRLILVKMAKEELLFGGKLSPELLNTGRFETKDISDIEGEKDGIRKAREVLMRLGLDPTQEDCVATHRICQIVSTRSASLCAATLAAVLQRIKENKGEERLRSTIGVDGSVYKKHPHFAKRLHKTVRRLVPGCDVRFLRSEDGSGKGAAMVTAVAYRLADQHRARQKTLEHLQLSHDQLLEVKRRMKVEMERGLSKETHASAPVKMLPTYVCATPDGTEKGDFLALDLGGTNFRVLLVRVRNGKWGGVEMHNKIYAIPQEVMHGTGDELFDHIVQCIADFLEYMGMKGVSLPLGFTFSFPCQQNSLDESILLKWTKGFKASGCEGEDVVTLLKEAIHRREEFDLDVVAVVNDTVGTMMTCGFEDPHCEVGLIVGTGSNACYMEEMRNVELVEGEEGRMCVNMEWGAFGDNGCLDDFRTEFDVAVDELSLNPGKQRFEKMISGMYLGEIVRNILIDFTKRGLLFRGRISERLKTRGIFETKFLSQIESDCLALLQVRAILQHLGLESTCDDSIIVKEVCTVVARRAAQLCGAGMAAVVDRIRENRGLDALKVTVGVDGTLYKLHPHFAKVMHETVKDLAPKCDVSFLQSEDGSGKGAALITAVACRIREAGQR
Nature of the series: competition; 5 µM HK2 Δ16, 25 nM ATTO700 SOX10 SL; almost complete competition; 10 mM Tris-HCl pH 7.5, 1 mM EDTA, 100 mM KCl, 0.1 mM DTT, 5% glycerol, 0.01 mg/mL BSA, 0.125 mg/mL yeast tRNA, 20°C; gel at 4°C. As to conditions: protein: recombinant; (pET28b, Ni-NTA); hairpin.

Consider AGGACGAGCCCCAGACUGGAGGAGAGGUCC (structured_RNA) [SOX10 SL (unlabeled)], for which the binding result is given as “binds”.

These data come from publication PMC12494293, “Hexokinase 2 is an RNA-binding protein that regulates mRNA translation independently of glycolysis and induces melanoma cell proliferation”.
